# The DeepSol protein solubility set
# Experiment: soluble on expression in E. coli; label from the status in PepcDB or PDB records
row,Sequence,soluble on expression in E. coli
1,MNNGFFNSDFDSIFRRMMKDMQGSNQVGNKKYYINGKEVSPEELAQLTQQGGNHSAEQSAQAFQQAAQRQQGQQGGNGNYLEQIGRNLTQEARDGLLDPVIGRDKEIQETAEVLSRRTKNNPILVGEAGVGKTAIVEGLAQAIVEGNVPAAIKDKEIISVDISSLEAGTQYRGAFEENIQKLIEGVKSSQNAVLFFDEIHQIIGSGATGSDSGSKGLSDILKPALSRGEISIIGATTQDEYRNNILKDAALTRRFNEVLVNEPSAKDTVEILKGIREKFEEHHQVKLPDDVLKACVDLSIQYIPQRLLPDKAIDVLDITAAHLSAQSPAVDKVETEKRISELENDKRKAVSAEEYKKADDIQNEIKSLQDKLENSNGEHTAVATVHDISDTIQRLTGIPVSQMDDNDIERLKNISNRLRSKIIGQDQAVEMVSRAIRRNRAGFDDGNRPIGSFLFVGPTGVGKTELAKQLAIDLFGNKDALIRLDMSEYSDTTAVSKMIGTTAGYVGYDDNSNTLTEKVRRNPYSVILFDEIEKANPQILTLLLQVMDDGNLTDGQGNVINFKNTIIICTSNAGFGNGNDAEEKDIMHEMKKFFRPEFLNRFNGIVEFLHLDKDALQDIVNLLLDDVQVTLDKKGITMDVSQDAKDWLIEEGYDEELGARPLRRIVEQQVRDKITDYYLDHTDVKHVDIDVEDNELVVKGK,not soluble
2,MGSDKIHHHHHHMMAYLVFLGPPGAGKGTYAKRLQEITGIPHISTGDIFRDIVKKENDELGKKIKEIMERGELVPDELVNEVVKRRLSEKDCERGFILDGYPRTVAQAEFLDGFLKTQNKELTAAVLFEVPEEVVVQRLTARRICPKCGRIYNLISLPPKEDELCDDCKVKLVQREDDKEETVRHRYKVYLEKTQPVIDYYDKKGILKRVDGTIGIDNVIAEVLKIIGWSDK,not soluble
3,MKTLEKRMKALDKRIMKFGKSLEGRLDARLIESALDYIHYSERFLAFEILCTYIEDFDVRLTEQESREISFINKEFEIESTSD,not soluble
4,SNAAKPLPKEMEDFVQSSGENGVVVFSLGSMVSNMTEERANVIASALAQIPQKVLWRFDGNKPDTLGLNTRLYKWIPQNDLLGHPKTRAFITHGGANGIYEAIYHGIPMVGIPLFADQPDNIAHMKARGAAVRVDFNTMSSTDLLNALKRVINDPSYKENVMKLSRIQHD,soluble
5,MRLTTKGRYAVTAMLDLALHAQQGPVSLADISERQGISLSYLEQLFAKLRRGNLVTSVRGPGGGYQLSRHMSGIHVAQVIDAVNESVDATRCQGQGDCHSGDTCLTHHLWCDLSLQIHEFLSGISLADLVSRQEVQEVALRQDERRCSGKTPRLDKIEASAID,not soluble
6,MSRVITHGQVKRVSETNAYAVPVESLTFPTLQPIGPLPPAGTTGVLITQRVPNTPYTPAPPPPPPVPANQTIIYEDGNNNNTIYMRVVSVVGPAKYNIEVL,not soluble
7,MSLQIHALFPTAVATAQLRLDPLEMAAQLQTLLMLRGADEGNPNSGCAWTGDLNGVWQLHRHPDFSGMTDRVVEQAWAYLSAVGFDQAKLALHVQRCWPVLSDWDQMVGRHHHPNAHLSAVLYLSGSGSGEDGVLRIHAPSQPNELVPGSAAGHGGPIAAGHPLNQPHWDLAPQPGLLVLFPSRLDHSVLANGDPELLRCSISFDFVLTAPVDGDPPEYLAPHPSLWTPQPLEVNEGHHHHHH,soluble
8,MITIKKQEIVKLEDVLHLYQAVGWTNYTHQTEMLEQALSHSLVIYLALDGDAVVGLIRLVGDGFSSVFVQDLIVLPSYQRQGIGSSLMKEALGNFKEAYQVQLATEETEKNVGFYRSMGFEILSTYDCTGMIWINREK,soluble
9,MGSDKIHHHHHHMKQFWNWKNYQIAWQVEETSNDSGIAIVLIHGFGACKEHWRFNQKTISSIAPCYALDLIGFGDSSKPNSQIPYEKKTYQNFNYCFDNWSQLVYDFCNEIVKKPVLLIGNSIGGVIALNTSKKLSQKALGVILIDCAQRTMDDKRLAEQSLLMRFLRPVIKTFVRQRLLSSNIFNIAAQPKFIAKILKVAYPSRNNVDEELIDTLFKPTQSKGAPEAFRGFINLFDDYLAPNLLKEMNTSVHLIWGEKDPWEPVKEAQKWFKTFECIKSLDVISDAGHCPHDEMPEKVNPILIKIIQEAI,not soluble
10,MSLAQRLATGKAGSIGLVMPTAPGHQSDVHFGEFLAGLGEEAVRHDFHFVIMPSDPDDEVAALRRLAISGNVDALFIAYMRGHDPRLAMLKSLSMPYVVHGRSFGAELDYPYLDIDNEGAFYDATRLLLQLGHTRFALMNGPMHLDFAIRRRNGVISALAERGLTLEEDCMSHALMTDEQGLLAMERFLQLPERPTAILCSSTVMALGAIRAVNQAGLRLGEDVSLIAHDDVLPLLKPENFSVPLTTTRSSLRAAGVRIAQRLIGTVKQAGPFPEQELWKTELIVRASTGPAPQEGHHHHHH,soluble
